Laboratory results as given in patent US20240376171A1 (Hoffmann-La Roche, published 2024).

How the values were obtained:
[1] = target: T1, PD1 on activated human CD4 and CD8 T cells (human, UniProt Q15116 25-288); test: flow cytometry, CD3/CD28-activated human PBMCs gated on CD3+CD4+ T cells, FITC anti-human Fc secondary antibody; no Matriptase digestion described
T1 construct: whole, on cells; Endogenous PD1 on CD3/CD28-stimulated T cells; also called human PD1; PD1 receptor
Method: (§1) PBMCs were bought from Biomex from a healthy donor (Lot 5000899PB). The PBMCs were stimulated for 3 days with CD3 and CD28 to induce upregulation of PD1 on T cells. Therefore, PBMCs were seeded in medium (RPMI1640, 10% FCS, 2 mM Glutamine) into cell culture flasks that were coated for 1 h at 37° C. with 1 μg/ml CD3 (clone OKT3, 302914, BioLegend). CD28 was added in solution to the PBMCs at a concentration of 1 μg/ml (clone CD28.2, 302914, BioLegend). After three days, PBMCs were harvested and transferred into a 96 well round bottom plate (200′000 cells per well). The cells were washed with FACS buffer (PBS, 2% FBS, 5 mM EDTA, 0.025% NaN3) and stained with 30 μl of corresponding TA PD1-IL2v constructs in FACS buffer for 30 min at 4° C. The cells were washed twice with FACS buffer to remove unbound molecules. Then 30 μl of the diluted FITC anti-mouse Fc specific secondary antibody (1:50 dilution, 115-096-071, Jackson ImmunoResearch) or for the human constructs the diluted FITC anti-human Fc specific secondary antibody (1:50 dilution, 115-096-098, Jackson ImmunoResearch) was added to the cells. After 30 min incubation at 4° C. the cells were washed twice with FACS buffer. To detect T cells, PBMCs were stained with 30 μl of a mixture of CD3 PE/Cyanine7 (clone UCHT1, 300420, BioLegend), CD4 PE (clone RPA-T4, 300508, BioLegend) and CD8 APC (clone SK1, 344722, BioLegend) for 30 min at 4° C. The unbound antibodies were removed by washing twice with FACS buffer. Finally the cells were resuspended in 150 μl FACs buffer and measured using a BD Fortessa gating on CD3+CD4+ cells (CD4 T cells) and CD3+CD8+ cells (CD8 T cells).

[2] = target: T1, PD1 on activated human CD4 and CD8 T …; test: flow cytometry, CD3/CD28-activated human PBMCs gated on CD3+CD8+ T cells, FITC anti-human Fc secondary antibody; no Matriptase digestion described
Method: as §1

[3] = target: T1, PD1 on activated human CD4 and CD8 T …; test: flow cytometry, CD3/CD28-activated human PBMCs gated on CD3+CD4+ T cells, PE anti-human Fc secondary antibody; TA constructs pre-incubated with Matriptase, unmasked controls not
Method: (§2) Three formats of TA PD1-IL2v molecules and respective controls were assessed for their capacity to bind to activated PD1 positive CD8 T cells and CD4 T cells within PBMCs in comparison to the respective unmasked molecules.
(§3) PBMCs were purchased from Biomex from a healthy donor (Lot 5000729PB). The PBMCs were stimulated for three days with CD3 and CD28 to induce upregulation of PD1 on T cells. Therefore, PBMCs were seeded in medium (RPMI1640, 10% FCS, 2 mM Glutamine) into cell culture flasks that were coated for 1 hour at 37° C. with 1 μg/ml CD3 (clone OKT3, 302914, BioLegend). CD28 was added in solution to the PBMCs at a concentration of 1 μg/ml (clone CD28.2, 302914, BioLegend). After three days, PBMCs were harvested and transferred into a 96 well round bottom plate (200′000 cells per well). The cells were washed with FACS buffer (PBS, 2% FBS, 5 mM EDTA, 0.025% NaN3) and stained with 30 μl of corresponding TA PD1-IL2v constructs in FACS buffer for 30 min at 4° C. Prior to the staining, 20 μg of the TA PD1-IL2v constructs were digested with 4 μl Matriptase (Enzo ˜2.5 U/μl, ALX-201-246-U25, Lot 12152015, or without Matriptase for the unmasked controls) for 2 hours at 37° C. in 40 μl Matriptase buffer (50 mM Tris, 50 mM NaCl, 0.01% Tween 20, pH 9.0). After the staining, the cells were washed twice with FACS buffer to remove unbound molecules. Then 30 μl of the diluted PE anti-human Fc specific secondary antibody (1:50 dilution, 109-116-170, Jackson ImmunoResearch) was added to the cells. After 30 min incubation at 4° C. the cells were washed twice with FACS buffer. To detect T cells, PBMCs were stained with 30 μl of a mixture of CD3 PE/Cyanine7 (clone UCHT1, 300420, BioLegend), CD4 FITC (clone RPA-T4, 300528, BioLegend) and CD8 APC/Cyanine7 (clone HIT8a, 300926, BioLegend) for 30 min at 4° C. The unbound antibodies were removed by washing twice with FACS buffer. Finally the cells resuspended in 150 μl FACS buffer and measured using a BD Fortessa gating on CD3+CD4+ cells (CD4 T cells) and CD3+CD8+ cells (CD8 T cells).

[4] = target: T1, PD1 on activated human CD4 and CD8 T …; test: flow cytometry, CD3/CD28-activated human PBMCs gated on CD3+CD8+ T cells, PE anti-human Fc secondary antibody; TA constructs pre-incubated with Matriptase, unmasked controls not
Method: as §2, §3

T1 sequence (Q15116 25-288): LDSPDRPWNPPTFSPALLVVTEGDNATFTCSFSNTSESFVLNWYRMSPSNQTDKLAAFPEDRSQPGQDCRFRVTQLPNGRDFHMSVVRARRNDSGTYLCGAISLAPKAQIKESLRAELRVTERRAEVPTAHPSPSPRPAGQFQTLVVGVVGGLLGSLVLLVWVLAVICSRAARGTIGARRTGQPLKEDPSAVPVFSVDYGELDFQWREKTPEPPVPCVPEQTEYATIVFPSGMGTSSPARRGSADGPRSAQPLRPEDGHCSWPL

Binder | EC50 (read off the curve) [1] | EC50 (read off the curve) [2] | EC50 (read off the curve) [3] | EC50 (read off the curve) [4]
human TA PD1-IL2v, MT204, 2xPQARK, in line (antibody, human IgG1, kappa, L234A L235A, Bivalent human PD1-targeted human IgG PG LALA with IL2v and MT204 scFv mask 'in-line' on the C-terminus of the Fc knob chain, two PQARK sites; also called P1AG9606; P1AG9606-008) light: DIVMTQSPDSLAVSLGERATINCKASESVDTSDNSFIHWYQQKPGQSPKLLIYRSSTLESGVPDRFSGSGSGTDFTLTISSLQAEDVAVYYCQQNYDVPWTFGQGTKVEIKRTVAAPSVFIFPPSDEQLKSGTASVVCLLNNFYPREAKVQWKVDNALQSGNSQESVTEQDSKDSTYSLSSTLTLSKADYEKHKVYACEVTHQGLSSPVTKSFNRGEC heavy 1: EVQLLESGGGLVQPGGSLRLSCAASGFSFSSYTMSWVRQAPGKGLEWVATISGGGRDIYYPDSVKGRFTISRDNSKNTLYLQMNSLRAEDTAVYYCVLLTGRVYFALDSWGQGTLVTVSSASTKGPSVFPLAPSSKSTSGGTAALGCLVKDYFPEPVTVSWNSGALTSGVHTFPAVLQSSGLYSLSSVVTVPSSSLGTQTYICNVNHKPSNTKVDKKVEPKSCDKTHTCPPCPAPEAAGGPSVFLFPPKPKDTLMISRTPEVTCVVVDVSHEDPEVKFNWYVDGVEVHNAKTKPREEQYNSTYRVVSVLTVLHQDWLNGKEYKCKVSNKALGAPIEKTISKAKGQPREPQVCTLPPSRDELTKNQVSLSCAVKGFYPSDIAVEWESNGQPENNYKTTPPVLDSDGSFFLVSKLTVDKSRWQQGNVFSCSVMHEALHNHYTQKSLSLSPG heavy 2: not shown | ~2 nM | ~2 nM | ~0.8 nM | ~1 nM
TA PD1-IL2v, MT204, non cleavable, N-term (antibody, human IgG1, kappa, L234A L235A, also called human TA PD1-IL2v, MT204, non cleavable, N-term; P1AG0929) light chain of the anti-human PD1 Fab (C02011851-A): DIVMTQSPDSLAVSLGERATINCKASESVDTSDNSFIHWYQQKPGQSPKLLIYRSSTLESGVPDRFSGSGSGTDFTLTISSLQAEDVAVYYCQQNYDVPWTFGQGTKVEIKRTVAAPSVFIFPPSDEQLKSGTASVVCLLNNFYPREAKVQWKVDNALQSGNSQESVTEQDSKDSTYSLSSTLTLSKADYEKHKVYACEVTHQGLSSPVTKSFNRGEC heavy chain, Fc hole, PG LALA (C01483382-H): EVQLLESGGGLVQPGGSLRLSCAASGFSFSSYTMSWVRQAPGKGLEWVATISGGGRDIYYPDSVKGRFTISRDNSKNTLYLQMNSLRAEDTAVYYCVLLTGRVYFALDSWGQGTLVTVSSASTKGPSVFPLAPSSKSTSGGTAALGCLVKDYFPEPVTVSWNSGALTSGVHTFPAVLQSSGLYSLSSVVTVPSSSLGTQTYICNVNHKPSNTKVDKKVEPKSCDKTHTCPPCPAPEAAGGPSVFLFPPKPKDTLMISRTPEVTCVVVDVSHEDPEVKFNWYVDGVEVHNAKTKPREEQYNSTYRVVSVLTVLHQDWLNGKEYKCKVSNKALGAPIEKTISKAKGQPREPQVCTLPPSRDELTKNQVSLSCAVKGFYPSDIAVEWESNGQPENNYKTTPPVLDSDGSFFLVSKLTVDKSRWQQGNVFSCSVMHEALHNHYTQKSLSLSPGK MT204 scFv mask - non-cleavable linker - IL2v - Fc knob chain, PG LALA (C2184220946-K): not shown |  |  | ~1 nM | ~2 nM

The remaining lines, values ahead:

EC50 (read off the curve) [1] | EC50 (read off the curve) [2] | EC50 (read off the curve) [3] | EC50 (read off the curve) [4] | Binder
 |  | ~0.8 nM | ~1 nM | human TA PD1-IL2v, MT204, 2xPQARK, knob/hole (antibody, human IgG1, kappa, L234A L235A, Bivalent human PD1-targeted human IgG PG LALA; also called P1AG9607; P1AG9607-006) light: DIVMTQSPDSLAVSLGERATINCKASESVDTSDNSFIHWYQQKPGQSPKLLIYRSSTLESGVPDRFSGSGSGTDFTLTISSLQAEDVAVYYCQQNYDVPWTFGQGTKVEIKRTVAAPSVFIFPPSDEQLKSGTASVVCLLNNFYPREAKVQWKVDNALQSGNSQESVTEQDSKDSTYSLSSTLTLSKADYEKHKVYACEVTHQGLSSPVTKSFNRGEC heavy 1: EVQLLESGGGLVQPGGSLRLSCAASGFSFSSYTMSWVRQAPGKGLEWVATISGGGRDIYYPDSVKGRFTISRDNSKNTLYLQMNSLRAEDTAVYYCVLLTGRVYFALDSWGQGTLVTVSSASTKGPSVFPLAPSSKSTSGGTAALGCLVKDYFPEPVTVSWNSGALTSGVHTFPAVLQSSGLYSLSSVVTVPSSSLGTQTYICNVNHKPSNTKVDKKVEPKSCDKTHTCPPCPAPEAAGGPSVFLFPPKPKDTLMISRTPEVTCVVVDVSHEDPEVKFNWYVDGVEVHNAKTKPREEQYNSTYRVVSVLTVLHQDWLNGKEYKCKVSNKALGAPIEKTISKAKGQPREPQVCTLPPSRDELTKNQVSLSCAVKGFYPSDIAVEWESNGQPENNYKTTPPVLDSDGSFFLVSKLTVDKSRWQQGNVFSCSVMHEALHNHYTQKSLSLSPGGGGGSGGGGSPQARKGGGGSGGGGSGGGGSGGGGSGGGEVQLVESGGGLVQPGGSLRLSCAASGFTFSSYTLAWVRQAPGKGLEWVAAIDSSSYTYSPDTVRGRFTISRDNAKNSLYLQMNSLRAEDTAVYYCARDSNWDALDYWGQGTTVTVSSGGGGSGGPQARKGGGGSGGGDIQMTQSPSSLSASVGDRVTITCKASQNVGTNVGWYQQKPGKAPKALIYSASFRYSGVPSRFSGSGSGTDFTLTISSLQPEDFATYYCQQYYTYPYTFGGGTKVEIK heavy 2: not shown
~2 nM | ~2 nM | ~0.8 nM | ~1 nM | human TA PD1-IL2v, MT204, non cleavable, in line (antibody, human IgG1, kappa, L234A L235A, Bivalent human PD1-targeted human IgG PG LALA with masked IL2v in-line on the Fc knob chain and no matriptase sites (non-cleavable control); also called P1AG5740; P1AG5740-004) light: DIVMTQSPDSLAVSLGERATINCKASESVDTSDNSFIHWYQQKPGQSPKLLIYRSSTLESGVPDRFSGSGSGTDFTLTISSLQAEDVAVYYCQQNYDVPWTFGQGTKVEIKRTVAAPSVFIFPPSDEQLKSGTASVVCLLNNFYPREAKVQWKVDNALQSGNSQESVTEQDSKDSTYSLSSTLTLSKADYEKHKVYACEVTHQGLSSPVTKSFNRGEC heavy 1: EVQLLESGGGLVQPGGSLRLSCAASGFSFSSYTMSWVRQAPGKGLEWVATISGGGRDIYYPDSVKGRFTISRDNSKNTLYLQMNSLRAEDTAVYYCVLLTGRVYFALDSWGQGTLVTVSSASTKGPSVFPLAPSSKSTSGGTAALGCLVKDYFPEPVTVSWNSGALTSGVHTFPAVLQSSGLYSLSSVVTVPSSSLGTQTYICNVNHKPSNTKVDKKVEPKSCDKTHTCPPCPAPEAAGGPSVFLFPPKPKDTLMISRTPEVTCVVVDVSHEDPEVKFNWYVDGVEVHNAKTKPREEQYNSTYRVVSVLTVLHQDWLNGKEYKCKVSNKALGAPIEKTISKAKGQPREPQVCTLPPSRDELTKNQVSLSCAVKGFYPSDIAVEWESNGQPENNYKTTPPVLDSDGSFFLVSKLTVDKSRWQQGNVFSCSVMHEALHNHYTQKSLSLSPG heavy 2: not shown
